Results as given in the supplement of paper PMC10724198.
± gives the standard deviation of the averaged measurements.
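Also: PSI is a weighted mean of sequencing reads over stability bins, variants kept only with over 10 reads, mCherry proximal and sfGFP distal, peptide attached via GGGS linker.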

Each sequence was assayed on Saccharomyces cerevisiae (assay: protein stability index of tFT-peptide fusion (C-terminal peptide) (PSI (0-1 scale)); higher = more stable (slower turnover)). Conditions: genetic background: wild type; temperature: 30 C.
TPLNPLYCPPTP gave a protein stability index of 0.6384 ± 0.0061.
Sequence TPLSPPALPPPS has a protein stability index of 0.659 ± 0.074.
For TPLVLTLLTRRP, the protein stability index was 0.709 ± 0.054.
With TPPACTRIPPAN the protein stability index was 0.777 ± 0.12.
TPPLPPPPPPIH showed a protein stability index of 0.7413 ± 0.0029.
In the case of TPPPPAPSPPPP, the protein stability index is reported as 0.761 ± 0.059.
With TPPPSLPPPPPP the protein stability index was 0.627 ± 0.07.
TPPRHTRTSQTV showed a protein stability index of 0.648 ± 0.0083.
Work on TPRPRRNCGPGP yielded a protein stability index of 0.717 ± 0.2.
Sequence TPSAPPPTHPYP has a protein stability index of 0.684 ± 0.036.
Sequence TPSPPTLHPPPP has a protein stability index of 0.691 ± 0.023.
TPSRLPPPLRSP was tested, and the protein stability index was 0.703 ± 0.004.
TPTRPLSSALRL showed a protein stability index of 0.697 ± 0.05.
TPVAPGLSPPPL showed a protein stability index of 0.659 ± 0.066.
In the case of TQKKQKRKDQQR, the protein stability index is reported as 0.654 ± 0.01.
With TQPDLAPPLPRS the protein stability index was 0.65 ± 0.017.
TQRLPTPPSIPL gave a protein stability index of 0.672 ± 0.017.
For TQSSADCFTLDA, the protein stability index was 0.719 ± 0.052.
For TQYMRVVQAKPD, the protein stability index was 0.659 ± 0.055.
Work on TRDTEKTGRREP yielded a protein stability index of 0.715 ± 0.0013.
In the case of TRFLRCACCFVC, the protein stability index is reported as 0.565 ± 0.036.
With TRGSRGARGGGW the protein stability index was 0.716 ± 0.012.
Work on TRKFATPRITVV yielded a protein stability index of 0.6939 ± 0.0038.
TRKQSVIRIRMR was tested, and the protein stability index was 0.653 ± 0.0082.
Work on TRLAGINGLLSA yielded a protein stability index of 0.689 ± 0.022.
For TRLDLIDSLRHL, the protein stability index was 0.731 ± 0.044.
TRLLPQRPLGGV was tested, and the protein stability index was 0.717 ± 0.046.
TRMPTRRNEQIY showed a protein stability index of 0.683 ± 0.047.
TRMRWCGSGVKN gave a protein stability index of 0.809 ± 0.067.
TRPLIRRRHWID gave a protein stability index of 0.697 ± 0.025.
With TRPSRRPPRPSS the protein stability index was 0.753 ± 0.22.
Work on TRPTPTRADCFG yielded a protein stability index of 0.685 ± 0.026.
With TRQRSDRPRAPR the protein stability index was 0.6523 ± 0.00075.
Sequence TRRAAARAVSAR has a protein stability index of 0.7 ± 0.066.
TRRFGSIINWVG gave a protein stability index of 0.59 ± 0.065.
In the case of TRRGPAGNKPRL, the protein stability index is reported as 0.749 ± 0.0092.
TRSADGFLGVMV gave a protein stability index of 0.739 ± 0.0092.
TRSDILGAERWG gave a protein stability index of 0.6794 ± 0.0033.
TRSQTASRSPTG gave a protein stability index of 0.672 ± 0.017.
TRTELGKRWIRR was tested, and the protein stability index was 0.697 ± 0.061.
In the case of TRYKSMRAGVAG, the protein stability index is reported as 0.674 ± 0.067.
Sequence TSAEYKIETIFT has a protein stability index of 0.688 ± 0.036.
Work on TSAPPPPPPPPP yielded a protein stability index of 0.608 ± 0.021.
Sequence TSAPRGNGKPEQ has a protein stability index of 0.678 ± 0.016.
For TSCPPPLAPSYD, the protein stability index was 0.6909 ± 0.0045.
For TSDPFGRPPETN, the protein stability index was 0.643 ± 0.1.
TSGTPSRTHTLR was tested, and the protein stability index was 0.612 ± 0.025.
TSLAPLPAPLRR was tested, and the protein stability index was 0.725 ± 0.031.
Sequence TSPPPPSPPAHH has a protein stability index of 0.625 ± 0.024.
TSPPPPSPPPPP showed a protein stability index of 0.785 ± 0.13.
TSSEREGHYCVR was tested, and the protein stability index was 0.693 ± 0.034.
Sequence TSTTRRGPRSRF has a protein stability index of 0.8168 ± 0.0029.
In the case of TTEESGGEGEGG, the protein stability index is reported as 0.664 ± 0.014.
With TTKRQKRKKKQR the protein stability index was 0.633 ± 0.015.
Sequence TTLATVLRTFPG has a protein stability index of 0.724 ± 0.031.
TTRALEAPARPN was tested, and the protein stability index was 0.6518 ± 0.0054.
TTRHPRLHYIDP gave a protein stability index of 0.674 ± 0.019.
With TTTRSDALPRGG the protein stability index was 0.713 ± 0.024.
In the case of TTTYQLSQTITI, the protein stability index is reported as 0.646 ± 0.041.
For TVATTIRVTKVV, the protein stability index was 0.582 ± 0.022.
TVFFVLGTESRV showed a protein stability index of 0.664 ± 0.032.
For TVFPVLTTVEGL, the protein stability index was 0.688 ± 0.03.
In the case of TVHTILYVPDEL, the protein stability index is reported as 0.677 ± 0.021.
TVIKMEKKKDGG gave a protein stability index of 0.6691 ± 0.0047.
Sequence TVKSCGRTLFSW has a protein stability index of 0.6874 ± 0.0051.
Sequence TVLRPKERQEHN has a protein stability index of 0.721 ± 0.038.
In the case of TVPLPPPPFLDS, the protein stability index is reported as 0.772 ± 0.042.
Work on TVPNLTPALPPL yielded a protein stability index of 0.525 ± 0.11.
TVRWRRGTGGAR was tested, and the protein stability index was 0.704 ± 0.019.
For TVTPAARTWHGR, the protein stability index was 0.67782 ± 0.00032.
For TVTPPAPCPPAG, the protein stability index was 0.709 ± 0.032.
For TWYYRYSCCQLP, the protein stability index was 0.696 ± 0.014.
TYKEHNKTRETG gave a protein stability index of 0.686 ± 0.076.
For TYLQYKQKMKKH, the protein stability index was 0.686 ± 0.15.
For TYSILLRVNCFK, the protein stability index was 0.601 ± 0.004.
TYWAPPFPLSLP gave a protein stability index of 0.52 ± 0.019.
In the case of VACFLCTPKWFE, the protein stability index is reported as 0.69 ± 0.057.
For VACIIIDFTRWY, the protein stability index was 0.536 ± 0.019.
For VAESGRGAGGDF, the protein stability index was 0.7314 ± 0.0029.
VAFPRSSTLGPY was tested, and the protein stability index was 0.696 ± 0.027.
VAGAGAGREAAY was tested, and the protein stability index was 0.616 ± 0.026.
Sequence VAGLQGGSGEGG has a protein stability index of 0.576 ± 0.06.
VAGTLPFMEFTS gave a protein stability index of 0.722 ± 0.023.
VAIGGGLGGDRC showed a protein stability index of 0.719 ± 0.032.
Work on VALPPSHLSAFL yielded a protein stability index of 0.6887 ± 0.0039.
With VALSLTSIFFMS the protein stability index was 0.556 ± 0.041.
In the case of VANGGVIVRGRC, the protein stability index is reported as 0.668 ± 0.012.
For VAPAHPPHHRNL, the protein stability index was 0.6626 ± 0.0036.
VAPPIPSKAGHL was tested, and the protein stability index was 0.753 ± 0.2.
With VAPPLAPSPPLP the protein stability index was 0.6678 ± 0.0013.
For VAPPSSFPPPRL, the protein stability index was 0.726 ± 0.056.
VASDGGYGYLRF showed a protein stability index of 0.797 ± 0.077.
In the case of VASLGFVGFCRF, the protein stability index is reported as 0.713 ± 0.06.
Work on VAWAGRGPGRSG yielded a protein stability index of 0.713 ± 0.024.
VAWCYCSGDTGV showed a protein stability index of 0.7 ± 0.035.
Work on VAWYSLAEGCEG yielded a protein stability index of 0.641 ± 0.043.
VCALGWWASWVW showed a protein stability index of 0.5512 ± 0.0013.
VCDGIIQGNGTI showed a protein stability index of 0.705 ± 0.021.
Sequence VCDLLLTLSFCV has a protein stability index of 0.587 ± 0.017.
Sequence VCFCLGNVTMEF has a protein stability index of 0.732 ± 0.017.
VCGRWVYPGGCR showed a protein stability index of 0.61 ± 0.01.
In the case of VCGWGFLLGVFV, the protein stability index is reported as 0.5107 ± 0.0022.
Sequence VCGYLSIVIWLR has a protein stability index of 0.423 ± 0.24.
VCIGVGGGVLGL was tested, and the protein stability index was 0.6746 ± 0.0036.
Work on VCNLSRRGLCHG yielded a protein stability index of 0.584 ± 0.11.
VCPRLISPLILL was tested, and the protein stability index was 0.584 ± 0.027.
VCRADADRFVGL showed a protein stability index of 0.71 ± 0.059.
VCRCYILSFPQR showed a protein stability index of 0.688 ± 0.028.
VCRGAIPIERFR showed a protein stability index of 0.715 ± 0.15.
For VCSEARRKSVAL, the protein stability index was 0.673 ± 0.02.
With VCVAACVGAHFA the protein stability index was 0.656 ± 0.083.
In the case of VDASQTRYSRGS, the protein stability index is reported as 0.73964 ± 0.00026.
VDDIIGIRKRNT gave a protein stability index of 0.691 ± 0.07.
VDFGTLISEDRM gave a protein stability index of 0.736 ± 0.036.
In the case of VDFLLRDPPGPS, the protein stability index is reported as 0.7201 ± 0.0065.
For VDGSYCGTLASY, the protein stability index was 0.6568 ± 0.0033.
Sequence VDHRFLWALSSF has a protein stability index of 0.751 ± 0.043.
VDRGGRVGERGR was tested, and the protein stability index was 0.597 ± 0.031.
Sequence VDSAPRPPPEPC has a protein stability index of 0.649 ± 0.041.
VDSSGSQPRGNR showed a protein stability index of 0.648 ± 0.039.
In the case of VDTNIRRTATYS, the protein stability index is reported as 0.729 ± 0.066.
With VDTPPPHHSPLL the protein stability index was 0.733 ± 0.068.
For VEGCVKGGCGGG, the protein stability index was 0.662 ± 0.052.
In the case of VERSEGRLGVVG, the protein stability index is reported as 0.686 ± 0.08.
VESGVLCPGVGA gave a protein stability index of 0.634 ± 0.02.
In the case of VEVRRMCSGQLG, the protein stability index is reported as 0.7136 ± 0.00096.
VEWLGWFGISNK showed a protein stability index of 0.76 ± 0.017.
VFAGLHSLCFFF showed a protein stability index of 0.641 ± 0.023.
VFATRALSQRLI showed a protein stability index of 0.526 ± 0.011.
Work on VFCGCGGCVSLG yielded a protein stability index of 0.655 ± 0.014.
VFDIQLLDGGGP was tested, and the protein stability index was 0.685 ± 0.025.
Work on VFFPLFLNGSNV yielded a protein stability index of 0.695 ± 0.018.
With VFFRGVVVLLRL the protein stability index was 0.472 ± 0.048.
Sequence VFGCAGVGGDCG has a protein stability index of 0.67 ± 0.028.
VFGRQVRVNGGS was tested, and the protein stability index was 0.707 ± 0.043.
Work on VFLGRWKFFFWG yielded a protein stability index of 0.619 ± 0.023.
In the case of VFQVFSVGTCSG, the protein stability index is reported as 0.6451 ± 0.0039.
Sequence VFRFGVCDDWCV has a protein stability index of 0.765 ± 0.018.
Work on VFRGGGAVGSVR yielded a protein stability index of 0.683 ± 0.043.
VFRSRTSSLFTP gave a protein stability index of 0.6794 ± 0.0058.
For VFVDGVSYGGLC, the protein stability index was 0.6811 ± 0.0058.
In the case of VFVFRLYFCGCC, the protein stability index is reported as 0.495 ± 0.015.
Work on VFVRSNSGACKN yielded a protein stability index of 0.682 ± 0.027.
VGAGAGGVGWVL was tested, and the protein stability index was 0.749 ± 0.056.
VGCLGYNSAGIN showed a protein stability index of 0.6968 ± 0.0065.
Sequence VGCPLSLDAPEG has a protein stability index of 0.687 ± 0.029.
VGDGGGEVMGEA showed a protein stability index of 0.677 ± 0.053.
VGEAGTRASVPV gave a protein stability index of 0.665 ± 0.12.
Work on VGELCGVGGRGG yielded a protein stability index of 0.68 ± 0.13.
VGFCFDGVHFRA showed a protein stability index of 0.639 ± 0.016.
Sequence VGFFLGVLLSLL has a protein stability index of 0.521 ± 0.0085.
VGFGLIVWSSGW gave a protein stability index of 0.529 ± 0.0077.
VGGAGDWRWGVW gave a protein stability index of 0.805 ± 0.018.
VGGAVDFSVFFC showed a protein stability index of 0.585 ± 0.018.
Sequence VGGCRLTRSSVW has a protein stability index of 0.688 ± 0.011.
VGGDRVGPEPEC gave a protein stability index of 0.718 ± 0.063.
Work on VGGEGKVVRGQE yielded a protein stability index of 0.6518 ± 0.00034.
Work on VGGGACVWSRRR yielded a protein stability index of 0.698 ± 0.05.
VGGGWGGGVVLV was tested, and the protein stability index was 0.696 ± 0.0071.
With VGGLMVYTGDVA the protein stability index was 0.704 ± 0.015.
